Target: T1, TRAF2 (UniProt Q12933 1-501, limits assumed)
T1 sequence (looked up): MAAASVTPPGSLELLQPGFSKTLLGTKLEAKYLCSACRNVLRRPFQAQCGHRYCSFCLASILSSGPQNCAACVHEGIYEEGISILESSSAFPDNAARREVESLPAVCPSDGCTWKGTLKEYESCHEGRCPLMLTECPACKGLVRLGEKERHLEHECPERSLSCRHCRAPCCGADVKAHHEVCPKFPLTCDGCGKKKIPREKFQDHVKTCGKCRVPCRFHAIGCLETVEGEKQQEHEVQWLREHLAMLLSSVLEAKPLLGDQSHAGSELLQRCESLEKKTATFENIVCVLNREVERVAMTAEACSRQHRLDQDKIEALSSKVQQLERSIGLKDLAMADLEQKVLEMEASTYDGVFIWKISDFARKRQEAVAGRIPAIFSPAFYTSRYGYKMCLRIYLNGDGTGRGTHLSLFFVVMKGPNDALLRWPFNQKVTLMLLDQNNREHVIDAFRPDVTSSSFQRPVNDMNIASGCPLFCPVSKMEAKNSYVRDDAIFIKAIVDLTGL
Assay: TRAF2 immunoprecipitation from transfected HEK293 cells, anti-Myc immunoblot (FIG. 9A)
Experimental: To understand how DX2 compromises the apoptotic activity of TNF-a signaling, we evaluated the ability of DX2 to compete with AIMP2 for the interaction with TRAF2 and to affect NF-kB-dependent transcriptional activity. For the co-immunoprecipitation assay, HEK293 cells were transfected with 0, 1 or 2 μg of Myc-tagged DX2 or AIMP2 expression plasmid (FIG. 9A). The expression of endogenous (Endo) and exogenous (Exo) AIMP2 and DX2 was confirmed by immunoblotting of whole cell lysates (WCL) with anti-AIMP2 antibody. TRAF2 was immunoprecipitated with its specific antibody and AIMP2 or DX2 bound to TRAF2 were detected with anti-Myc antibody.

B1: Myc-tagged DX2 (other)
chain: MPMYQVKPYHGGGAPLRVELPTCMYRLPNVHGRSYGPAPGAGHVQDYGALKDIVINANPASPPLSLLVLHRLLCEHFRVLSTVHTHSSVKSVPENLLKCFGEQNKKQPRQDYQLGFTLIWKNVPKTQMKFSIQTMCPIEGEGNIARFLFSLFGQKHNAVNATLIDSWVDIAIFQLKEGSSKEKAAVFRSMNSALGKSPWLAGNELTVADVVLWSVLQQIGGCSVTVPANVQRWMRSCENLAPFNTALKLLK
notes: also called Myc-DX2; not shown: Myc tag
binding result: binds

Reference: patent US20250281573A1 (GENEROATH, published 2025)
